# Read-outs that look alike come from different tables or passages of the source.
# B1: MS329_5 Nb-human Fc fusion (Fc fusion, not shown: a dimerising Fc or GST)
# VH: EVQLQQSGPELVKPGASVKMSCKASGYTFTDYYIKWEKQSHGKSLEWIGDINPKNGETFYNQQFKGKATLTVDKSSSTAYMQLNSLTSEDSAVYYCARKEYGDYGYAVDYWGQGTSVTVSS
# notes: also called LVGN-S3205; LVGN-53205
# B2: M2S521_378 Nb-human Fc fusion (Fc fusion, not shown: a dimerising Fc or GST)
# VH: EVQLQQSGPELVKPGASVKISCKASGYTFTDYYMKWVKQSHGKSLEWIGDINPKNGGTNYNQKFKDKATLTVDKSSSTAYMELRSLTSEDSAVYYCARLEDGYYGYAIDYWSQGTSVTVSS
# notes: also called LVGN-S231378; LVGN-S521378
# Key:
# [1] = target: T1, SARS-Cov2 Spike Active Trimer SAT (R&D Systems; Catalog No. 10549-CV) (SARS-CoV2, UniProt P0DTC2 16-1211); test: SPR (Carterra)
# T1 construct: also called SARS-CoV2 Spike Active Trimer protein; recombinant SAT protein
# [2] = target: T1, SARS-Cov2 Spike Active Trimer SAT (R&D …)
# [3] = target: T1, SARS-Cov2 Spike Active Trimer SAT (R&D …)
# [4] = target: T1, SARS-Cov2 Spike Active Trimer SAT (R&D …); test: ELISA, serially diluted purified Nb-Fc on SAT antigen
binder,measurement,setting,value
B1,Kd,[1],3.17 nM
same,Kd,[2],1.06 nM
same,koff,[2],0.000143 s⁻¹
same,kon,[2],135000 M⁻¹ s⁻¹
same,Kd,[3],1.21 nM
same,EC50,[4],0.024 nM
B2,EC50,[4],0.081 nM
